Test results taken from article PMC12618784.
Blank lines part the entries; values can stand above or below the binder they belong to.

How the values were obtained:
Porin, Q94920 [1] = target: T1, Porin, Q94920; test: pull-down (anti-HA immunoprecipitation) with mass spectrometry; settings: chain shown with the change; 3rd instar larval muscle tissue (mef2-Gal4); four individual biological replicates; read off a plot
T1 chain: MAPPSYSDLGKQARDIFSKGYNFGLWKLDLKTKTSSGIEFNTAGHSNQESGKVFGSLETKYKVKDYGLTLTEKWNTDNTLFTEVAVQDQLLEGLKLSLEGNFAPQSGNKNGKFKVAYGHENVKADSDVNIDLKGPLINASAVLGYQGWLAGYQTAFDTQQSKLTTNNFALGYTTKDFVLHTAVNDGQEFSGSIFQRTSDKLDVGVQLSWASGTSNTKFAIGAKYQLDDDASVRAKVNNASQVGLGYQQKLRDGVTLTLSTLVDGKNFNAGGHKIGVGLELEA

Porin::HA, Q94920 = target: T2, Porin::HA, Q94920; test: co-immunoprecipitation (anti-GFP beads), quantified blot; settings: chain shown with the change; transfected Sf21 cells; values normalised to the corresponding amounts of precipitated Dmel\Tmem43; parent: est. 0.75; read off a plot
T2 chain: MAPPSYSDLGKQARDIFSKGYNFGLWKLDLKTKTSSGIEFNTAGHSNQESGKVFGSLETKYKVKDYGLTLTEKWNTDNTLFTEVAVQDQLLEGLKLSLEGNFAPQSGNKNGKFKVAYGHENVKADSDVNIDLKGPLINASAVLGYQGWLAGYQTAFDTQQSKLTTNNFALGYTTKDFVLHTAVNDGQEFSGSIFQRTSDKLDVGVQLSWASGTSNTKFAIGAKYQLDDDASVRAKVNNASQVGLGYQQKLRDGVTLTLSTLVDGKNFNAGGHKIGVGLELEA

[2] = target: T3, Sphingosine-1-phosphatase lyase (Sply), Q9V7Y2; test: TurboID biotin proximity labelling with mass spectrometry; settings: chain shown with the change; 3rd instar larval muscle tissue (mef2-Gal4); parent: 1
T3 chain: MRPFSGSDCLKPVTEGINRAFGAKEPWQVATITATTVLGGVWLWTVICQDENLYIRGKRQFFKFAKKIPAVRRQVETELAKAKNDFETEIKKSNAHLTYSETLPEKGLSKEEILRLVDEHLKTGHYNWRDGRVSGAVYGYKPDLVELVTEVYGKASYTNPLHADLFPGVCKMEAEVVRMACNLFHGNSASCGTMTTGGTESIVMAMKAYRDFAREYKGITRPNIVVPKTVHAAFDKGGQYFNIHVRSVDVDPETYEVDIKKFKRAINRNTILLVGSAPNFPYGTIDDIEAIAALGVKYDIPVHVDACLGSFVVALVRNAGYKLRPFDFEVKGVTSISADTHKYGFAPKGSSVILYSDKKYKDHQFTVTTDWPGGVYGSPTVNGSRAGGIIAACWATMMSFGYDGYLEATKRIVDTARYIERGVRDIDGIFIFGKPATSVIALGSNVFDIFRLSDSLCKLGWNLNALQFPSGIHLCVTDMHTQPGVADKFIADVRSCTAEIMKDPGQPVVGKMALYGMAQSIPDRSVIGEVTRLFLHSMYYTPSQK

Porin, Q94920 [3] = target: T1, Porin, Q94920; test: as above; settings: chain shown with the change; 3rd instar larval muscle tissue (mef2-Gal4); parent: 1
SERCA, P22700 = test: as above; settings: chain shown with the change; 3rd instar larval muscle tissue (mef2-Gal4); parent: 1
Mitofilin, P91928 = target: T4, Mitofilin, P91928; test: as above; settings: chain shown with the change; 3rd instar larval muscle tissue (mef2-Gal4); parent: 1
T4 chain: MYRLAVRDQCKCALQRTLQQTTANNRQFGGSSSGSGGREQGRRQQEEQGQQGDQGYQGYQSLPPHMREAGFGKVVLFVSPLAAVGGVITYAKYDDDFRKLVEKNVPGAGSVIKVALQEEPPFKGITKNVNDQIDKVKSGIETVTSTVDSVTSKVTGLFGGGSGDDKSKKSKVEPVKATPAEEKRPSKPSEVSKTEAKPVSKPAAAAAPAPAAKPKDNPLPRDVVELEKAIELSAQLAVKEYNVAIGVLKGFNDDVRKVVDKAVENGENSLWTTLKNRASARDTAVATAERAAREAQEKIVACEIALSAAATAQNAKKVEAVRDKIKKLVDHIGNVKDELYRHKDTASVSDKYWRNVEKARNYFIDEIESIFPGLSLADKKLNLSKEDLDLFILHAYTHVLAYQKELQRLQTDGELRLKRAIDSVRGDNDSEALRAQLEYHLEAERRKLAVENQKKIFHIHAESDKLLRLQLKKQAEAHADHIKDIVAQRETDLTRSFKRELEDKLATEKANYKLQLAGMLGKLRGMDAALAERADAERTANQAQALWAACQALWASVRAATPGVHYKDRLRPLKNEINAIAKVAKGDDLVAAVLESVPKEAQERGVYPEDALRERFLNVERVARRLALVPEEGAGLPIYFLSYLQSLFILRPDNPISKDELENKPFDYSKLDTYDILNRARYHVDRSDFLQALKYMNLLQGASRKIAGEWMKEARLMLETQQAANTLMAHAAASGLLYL

Sequence of SERCA, P22700 (P22700 whole entry, the tested form may be a part): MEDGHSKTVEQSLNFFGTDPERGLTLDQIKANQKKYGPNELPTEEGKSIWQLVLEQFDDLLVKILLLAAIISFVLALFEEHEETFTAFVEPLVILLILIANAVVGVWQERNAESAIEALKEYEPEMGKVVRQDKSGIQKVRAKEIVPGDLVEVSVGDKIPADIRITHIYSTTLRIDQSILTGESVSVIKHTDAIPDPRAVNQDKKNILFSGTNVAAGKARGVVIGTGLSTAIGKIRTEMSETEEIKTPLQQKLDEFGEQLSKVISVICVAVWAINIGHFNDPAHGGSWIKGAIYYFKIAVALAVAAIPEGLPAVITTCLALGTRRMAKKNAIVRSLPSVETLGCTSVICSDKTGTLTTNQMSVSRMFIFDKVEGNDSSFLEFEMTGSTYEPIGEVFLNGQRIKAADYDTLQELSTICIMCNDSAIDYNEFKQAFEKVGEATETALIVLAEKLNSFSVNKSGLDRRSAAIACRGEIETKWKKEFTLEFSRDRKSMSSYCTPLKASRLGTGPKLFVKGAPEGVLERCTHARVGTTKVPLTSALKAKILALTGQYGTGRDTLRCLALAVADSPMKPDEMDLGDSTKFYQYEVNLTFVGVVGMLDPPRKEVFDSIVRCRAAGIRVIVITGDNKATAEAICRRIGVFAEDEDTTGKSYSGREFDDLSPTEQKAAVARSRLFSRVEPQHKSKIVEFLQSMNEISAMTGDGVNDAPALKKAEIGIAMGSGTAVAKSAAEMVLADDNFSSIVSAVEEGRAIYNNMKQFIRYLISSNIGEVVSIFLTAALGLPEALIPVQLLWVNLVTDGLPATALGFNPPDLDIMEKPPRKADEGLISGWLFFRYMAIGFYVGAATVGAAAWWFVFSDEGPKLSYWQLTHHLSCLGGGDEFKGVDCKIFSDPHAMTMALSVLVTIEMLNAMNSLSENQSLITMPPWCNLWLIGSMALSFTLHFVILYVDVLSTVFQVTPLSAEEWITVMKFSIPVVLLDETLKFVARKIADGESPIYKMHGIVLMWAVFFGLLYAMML

ratio to parent (Porin, Q94920 [1]): 0.4
B1: Dmel\Tmem43wt::HA, Q9VSB9 p.S333L (protein)
chain: MASLSETLRSHWPIALFGVILFVAGGTELYWNEGRAVHNMMALDEAHADIYSVRFTEEEQEVGLEGRIVHLSGPILVGEPLTEPDYNIQLLAVKLRRRVQMYQWVEEAVEHNYGDSVGTTHSDSRTYYYTREWRDKIVDSRNFYNRHGHTNPSHFPIESHVQVADAVFIGRYELGAEVKEKFNNYQELTSDIRPEDSGVKLHLGIYYHTNDVFNPEVGDLRLLFSFAGMEGEVFSVVGKLSGNKLVPYITSRGVPVLLVYPGGLSVQEVFRLEARAQVLHTWWWRFVGWLLIFFGVTCNTKILRLLFVRVPLLVALAPDPQFPVTGNLLIAFLLALTIAAVAWILHRPVIGACLLLAGASPYVWFTRNLVDYHRLD

response (Porin::HA, Q94920): 0.05
B2: Dmel\Tmem43wt::GFP, Q9VSB9 p.S333L (protein)
chain: MASLSETLRSHWPIALFGVILFVAGGTELYWNEGRAVHNMMALDEAHADIYSVRFTEEEQEVGLEGRIVHLSGPILVGEPLTEPDYNIQLLAVKLRRRVQMYQWVEEAVEHNYGDSVGTTHSDSRTYYYTREWRDKIVDSRNFYNRHGHTNPSHFPIESHVQVADAVFIGRYELGAEVKEKFNNYQELTSDIRPEDSGVKLHLGIYYHTNDVFNPEVGDLRLLFSFAGMEGEVFSVVGKLSGNKLVPYITSRGVPVLLVYPGGLSVQEVFRLEARAQVLHTWWWRFVGWLLIFFGVTCNTKILRLLFVRVPLLVALAPDPQFPVTGNLLIAFLLALTIAAVAWILHRPVIGACLLLAGASPYVWFTRNLVDYHRLD

ratio to parent [2]: 0.23
ratio to parent (Porin, Q94920 [3]): 0.13
ratio to parent (SERCA, P22700): 0.17
ratio to parent (Mitofilin, P91928): 0.17
B3: Dmel\Tmem43wt::TurboID, Q9VSB9 p.S333L (protein)
chain: MASLSETLRSHWPIALFGVILFVAGGTELYWNEGRAVHNMMALDEAHADIYSVRFTEEEQEVGLEGRIVHLSGPILVGEPLTEPDYNIQLLAVKLRRRVQMYQWVEEAVEHNYGDSVGTTHSDSRTYYYTREWRDKIVDSRNFYNRHGHTNPSHFPIESHVQVADAVFIGRYELGAEVKEKFNNYQELTSDIRPEDSGVKLHLGIYYHTNDVFNPEVGDLRLLFSFAGMEGEVFSVVGKLSGNKLVPYITSRGVPVLLVYPGGLSVQEVFRLEARAQVLHTWWWRFVGWLLIFFGVTCNTKILRLLFVRVPLLVALAPDPQFPVTGNLLIAFLLALTIAAVAWILHRPVIGACLLLAGASPYVWFTRNLVDYHRLD
